Paper PMC9359980

Assays:
[1] = biological target: Photozipper (PZ), wild-type (Vaucheria frigida); experiment: high-speed atomic force microscopy (HS-AFM); molecules on mica in Buffer-B (1 mM NaCl, 20 mM Tris-HCl pH 7, 1 mM DTT, 0.2 mM PMSF), room temperature, dark conditions (prepared under dim red light); 13-38 nM protein; dimer to monomers
[2] = biological target: Photozipper (PZ), wild-type (Vaucheria frigida); experiment: high-speed atomic force microscopy (HS-AFM); molecules on mica in Buffer-B (1 mM NaCl, 20 mM Tris-HCl pH 7, 1 mM DTT, 0.2 mM PMSF), room temperature, blue light illumination (450 nm, about 4.3 mW/mm^2); 13-50 nM protein; dimer to monomers

## Photozipper (PZ), wild-type (domain or fragment)
[1]
  average dimer lifetime: 8.1 s
  stoichiometry N: 2
[2]
  average dimer lifetime: 86 s
  stoichiometry N: 2
  time constant of the dimerization rate (38 nM PZ, after the start of blue light): 255 s
